{
  "source": "paper PMC2636891",
  "about": "“Two Highly Conserved Cysteine Residues in HPV16 L2 Form an Intramolecular Disulfide Bond and Are Critical for Infectivity in Human Keratinocytes” (PLoS ONE, 2009)",
  "binders": {"B1": {"name": "HPV16 minor capsid protein L2, wild type (natural protein)", "chain": "MRHKRSAKRTKRASATQLYKTCKQAGTCPPDIIPKVEGKTIAEQILQYGSMGVFFGGLGIGTGSGTGGRTGYIPLGTRPPTATDTLAPVRPPLTVDPVGPSDPSIVSLVEETSFIDAGAPTSVPSIPPDVSGFSITTSTDTTPAILDINNTVTTVTTHNNPTFTDPSVLQPPTPAETGGHFTLSSSTISTHNYEEIPMDTFIVSTNPNTVTSSTPIPGSRPVARLGLYSRTTQQVKVVDPAFVTTPTKLITYDNPAYEGIDVDNTLYFSSNDNSINIAPDPDFLDIVALHRPALTSRRTGIRYSRIGNKQTLRTRSGKSIGAKVHYYYDLSTIDPAEEIELQTITPSTYTTTSHAASPTSINNGLYDIYADDFITDTSTTPVPSVPSTSLSGYIPANTTIPFGGAYNIPLVSGPDIPINITDQAPSLIPIVPGSPQYTIIADAGDFYLHPSYYMLRKRRKRLPYFFSDVSLAA", "modifications": "intramolecular disulfide bond C22-C28", "notes": "minor capsid protein L2 of human papillomavirus type 16, expressed from pXULL; AAD33258 is the entry used for the alignment and gi 4927726 the one searched in mass spectrometry; Assembled with L1 into virions; also called wild type L2; source: 293TT, transfected with pXULL (L1 and L2 expression plasmid), in virions purified by CsCl density gradient"}, "B2": {"name": "HPV16 L2 C22/28S (natural protein)", "chain": "B1 chain with C22S, C28S", "notes": "minor capsid protein L2 of human papillomavirus type 16 with C22S and C28S, expressed from a pXULL variant made by site directed mutagenesis; Assembled with L1 into virions; also called double mutant; source: 293TT, transfected with mutant pXULL, in virions purified by CsCl density gradient"}, "B3": {"name": "HPV16 L2 C22S (natural protein)", "chain": "B1 chain with C22S", "notes": "minor capsid protein L2 of human papillomavirus type 16 with C22S, expressed from a pXULL variant made by site directed mutagenesis; Assembled with L1 into virions; also called single C22S mutant; source: 293TT, transfected with mutant pXULL, in virions purified by CsCl density gradient"}, "B4": {"name": "HPV16 L2 C28S (natural protein)", "chain": "B1 chain with C28S", "notes": "minor capsid protein L2 of human papillomavirus type 16 with C28S, expressed from a pXULL variant made by site directed mutagenesis; Assembled with L1 into virions; also called single C28S mutant; source: 293TT, transfected with mutant pXULL, in virions purified by CsCl density gradient"}},
  "note": "Residue numbers refer to the chain shown, from its start. Names may count otherwise.",
  "data": [
    {"target": "T1, HPV16 major capsid protein L1 (human papillomavirus type 16, UniProt P03101 1-505, disulfide-linked to other L1 chains in the virions)", "T1 construct": "major capsid protein L1 of human papillomavirus type 16, expressed from the capsid expression plasmid pXULL; Assembled with L2 and the HPV16 genome into virions; source: 293TT, transfected with pXULL (L1 and L2 expression plasmid), in virions purified by CsCl density gradient", "T1 sequence": "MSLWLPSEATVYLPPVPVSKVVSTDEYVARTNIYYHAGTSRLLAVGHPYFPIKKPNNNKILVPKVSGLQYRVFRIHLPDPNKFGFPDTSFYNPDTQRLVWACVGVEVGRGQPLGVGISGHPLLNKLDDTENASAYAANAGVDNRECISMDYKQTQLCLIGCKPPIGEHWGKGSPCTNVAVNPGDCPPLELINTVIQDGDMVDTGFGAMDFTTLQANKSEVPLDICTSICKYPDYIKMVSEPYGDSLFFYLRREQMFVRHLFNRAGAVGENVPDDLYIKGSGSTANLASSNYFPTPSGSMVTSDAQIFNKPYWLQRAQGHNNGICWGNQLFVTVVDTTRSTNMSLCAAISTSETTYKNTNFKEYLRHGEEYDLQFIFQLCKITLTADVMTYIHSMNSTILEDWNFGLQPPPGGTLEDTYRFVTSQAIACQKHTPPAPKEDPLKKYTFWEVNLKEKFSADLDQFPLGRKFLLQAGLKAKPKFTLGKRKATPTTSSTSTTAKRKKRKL", "assay": "co-sedimentation; CsCl-purified virions; SDS-PAGE and Coomassie staining-based densitometry; data not shown", "conditions": "partners not purified", "units": {"molecules L2 per virion": "molecules L2 per virion"}, "values": [
      {"binder": "B1", "molecules L2 per virion": "~22"},
      {"binder": "B2", "molecules L2 per virion": "~22"},
      {"binder": "B3", "molecules L2 per virion": "~22"},
      {"binder": "B4", "molecules L2 per virion": "~22"}
    ]},
    {"target": "the molecule itself", "assay": "non-reducing denaturing SDS-PAGE with immunoblot; purified virions reacted with 2 mM NEM for 1.5 h at room temperature, mixed with non-reducing SDS loading buffer (2% SDS), 7.5% gel, immunoblot for L1 and L2; shows only disulfide-linked species", "conditions": "not given", "values": [
      {"binder": "B3", "stoichiometry N": 2},
      {"binder": "B4", "stoichiometry N": 2}
    ]}
  ]
}
